{
  "source": "patent US20110092427A1",
  "about": "“POLYPEPTIDE AND PHARMACEUTICAL COMPOSITION CONTAINING THE POLYPEPTIDE” (National University Corporation Hokkaido Universit y, priority 2008, published 2011)",
  "key": {"[1]": {"system": "psoriasis patient-derived skin grafted onto the back of a mouse", "experiment": "External application to psoriasis patient skin grafted onto SCID mice", "type": "in vivo", "settings": "for side effects at the applied sites: 70 μL of 1 mM solution in PBS applied to grafted site daily for 14 days; for thickness of the grafted skin (HE-stained sections): psoriasis skin graft, 70 μL of 1 mM solution applied daily for 14 days, FIG. 6, p<0.05", "excerpt": "The hair in the area of approximately 1 cm^2 in the back of 7 to 8 week-old SCID mice (Clea Japan, Inc.) was shaved, and the full-thickness skin was removed while keeping the vessel plexus intact on the fascia overlying back muscles. The skin of affected area of a psoriasis patient that was sampled under the approval of the ethical code was washed with PBS containing 1% penicillin, 1% streptomycine, and 1% amphotericin B, and each piece of the skin thus treated was separately transplanted onto the skin-removed area of the above-described mice.\nSeven days after transplantation, 70 μL of each of solutions prepared by dissolving polypeptides P5-1, P5-2, and P5-3 into phosphate buffered saline (PBS) (each 1 mM) was applied to the grafted sites of three mice daily for 14 days. […] Further, as a control, the same volumes of PBS solution containing a polypeptide having a random sequence and PBS without polypeptide were applied. After 14 days, a part of the grafted skin was collected and embedded in an optimal cutting temperature (OCT) reagent (Sakura finetechnical Co., Ltd.) and then frozen in liquid nitrogen, which was then prepared as 5 μm-thick sections.\nAlso, in accordance with the method of Abe et al. (Am. J. Pathol., 2004, Vol. 164, No. 4, pages 1225-1232), the capillary endothelial cells in the grafted superficial dermis were enumerated by immunoassay employing a rat anti-mouse CD31 antibody using CD31, which was a marker protein of the capillary endothelial cells, as an index."}, "[2]": {"system": "human osteosarcoma cells, MG63", "experiment": "Inhibition of MG63 tumor cell proliferation, 5-bromo-2' deoxyuridine incorporation", "type": "cell-based", "settings": "100 nM; FIG. 3 and FIG. 4, p<0.01", "method": "(§1) The inhibitory effect of each polypeptide on tumor cell proliferation with respect to human osteosarcoma cells, MG63 (Health Science Research Resources) was measured in accordance with the method described by Takenaka et al. (Life Science, 2005, Vol. 77, pages 3231-3241).\n(§2) Into Dulbecco's modified Eagle's medium (DMEM) supplemented with 10% of fetal bovine serum (FBS) and 100 units/mL penicillin and streptomycin (hereinbelow, simply referred to as a medium), MG63 was suspended. Then, 100 nM commercially available PEDF protein (Sigma) and each of 100 nM polypeptides F1 to F3 prepared in Example 1 “2) Production of polypeptides F1 to F3” were each added per medium, followed by incubation at 37° C. for 24 hours. Subsequently, [^3H] thymidine (Amersham Biosciences Corp.) was added and incubation was carried out for four hours, after which the amount of [^3H] thymidine incorporation by MG63 was measured and the inhibitory effect on tumor cell proliferation was examined.\nAlso, by carrying out similar operations to the above, the inhibitory effect on MG63 tumor cell proliferation was examined by measuring the amount of 5-bromo-2′ deoxyuridine (Roche) incorporation with addition of each of 100 nM polypeptides P1 to P6. […]"}, "[3]": {"system": "psoriasis patient-derived skin grafted onto the back of mice", "experiment": "Subcutaneous injection at psoriasis patient skin grafted onto SCID mice", "type": "in vivo", "settings": "skin of affected area of a psoriasis patient, 30 μg subcutaneous injection, three times/week for three weeks", "excerpt": "(§3) Further, in a similar manner to the above, the hair in the area of approximately 1 cm^2 in the back of 7 to 8 week old SCID mice (Clea Japan, Inc.) was shaved, and the full-thickness skin was removed while keeping the vessel plexus intact on the fascia overlying back muscles. The skin of affected area of a psoriasis patient and the skin of a normal individual that were sampled under the approval of the ethical code were each washed with PBS containing 1% penicillin and 1% amphotericin B, and each of the skin thus treated was separately transplanted onto the skin-removed area of the above-described mice.\n(§4) Seven days after transplantation, commercially available PEDF protein (30 μg) was given at the grafted site by subcutaneous injection. The injection was administered for three weeks at three times/week. As a control, a mouse given subcutaneous injection of only PBS was used. The day after the last subcutaneous injection, a part of the grafted skin was collected and stained with HE in a similar manner to the above, and the thickness of the grafted skin was measured. The results obtained from the skin of affected area of a psoriasis patient are shown in FIG. 8 (photograph) and FIG. 9, and the results obtained from the skin of a normal individual are shown in FIG. 10 (photograph) and FIG. 11.\n(§5) Also, by carrying out similar operations to the above, the capillary endothelial cells were enumerated using CD31 as an index. The results obtained from the skin of affected area of a psoriasis patient are shown in FIG. 12 and the results obtained from the skin of a normal individual are shown in FIG. 13.\n(§6) Further, the frequency of Ki-67 expressing positive cells, where Ki-67 is a proliferation marker of the basal cell layer, was measured in accordance with the method of Gilhar et al. (Am. J. Pathol., 2006, Vol. 168, No. 1, pages 170 to 175). The results obtained from the skin of affected area of a psoriasis patient are shown in FIG. 14 and the results obtained from the skin of a normal individual are shown in FIG. 15."}, "[4]": {"system": "normal individual-derived skin grafted onto the back of mice", "experiment": "Subcutaneous injection at normal individual skin grafted onto SCID mice", "type": "in vivo", "settings": "skin of a normal individual, 30 μg subcutaneous injection, three times/week for three weeks", "excerpt": "as §3, §4, §5, §6"}, "[5]": {"system": "human osteosarcoma cells, MG63", "experiment": "Inhibition of MG63 tumor cell proliferation, [3H] thymidine incorporation", "type": "cell-based", "settings": "100 nM, incubation 24 hours, then [3H] thymidine four hours; FIG. 2, p<0.01", "method": "as §1, §2"}},
  "note": "Peptide text beside a SMILES is read from it.",
  "data": [
    {"molecule": "CC(C)C[C@H](NC(=O)[C@@H](N)Cc1c[nH]cn1)C(=O)N[C@H](C(=O)N[C@@H](Cc1ccccc1)C(=O)N1CCC[C@H]1C(=O)N[C@@H](CC(C)C)C(=O)N[C@@H](CC(=O)O)C(=O)O)[C@@H](C)O", "note": "[polypeptide P5-1] (H-HLTFPLD-OH)", "values": [
      {"measurement": "side effects at the applied sites", "setting": "[1]", "result": "no side effects and the like were apparent"}
    ]},
    {"molecule": "polypeptide P5-2: polypeptide of SEQ ID NO: 2, identical to positions 388 to 394 of PEDF (YHLNQP; listed as Homo sapiens)", "values": [
      {"measurement": "side effects at the applied sites", "setting": "[1]", "result": "no side effects and the like were apparent"},
      {"measurement": "thickness of the grafted skin (HE-stained sections)", "setting": "[1]", "result": "significantly reduced"}
    ]},
    {"molecule": "polypeptide P5-3: polypeptide of SEQ ID NO: 3, identical to positions 395 to 400 of PEDF (FIFVLRD; listed as Homo sapiens)", "values": [
      {"measurement": "side effects at the applied sites", "setting": "[1]", "result": "no side effects and the like were apparent"},
      {"measurement": "thickness of the grafted skin (HE-stained sections)", "setting": "[1]", "result": "significantly reduced"}
    ]},
    {"molecule": "polypeptide P5: polypeptide of SEQ ID NO: 5, identical to the amino acid sequence of positions 381 to 400 of PEDF (HLTFPLDYHLNQPFIFVLRD; listed as Homo sapiens)", "values": [
      {"measurement": "inhibitory effect on MG63 tumor cell proliferation (amount of 5-bromo-2' deoxyuridine incorporation)", "setting": "[2]", "result": "an inhibitory effect on tumor cell proliferation was confirmed"}
    ]},
    {"molecule": "PEDF protein: commercially available PEDF protein comprising the amino acid sequence of SEQ ID NO: 6 (Sigma) (protein, listed as Homo sapiens) MQALVLLLCIGALLGHSSCQNPASPPEEGSPDPDSTGALVEEEDPFFKVPVNKLAAAVSNFGYDLYRVRSSTSPTTNVLLSPLSVATALSALSLGAEQRTESIIHRALYYDLISSPDIHGTYKELLDTVTAPQKNLKSASRIVFEKKLRIKSSFVAPLEKSYGTRPRVLTGNPRLDLQEINNWVQAQMKGKLARSTKEIPDEISILLLGVAHFKGQWVTKFDSRKTSLEDFYLDEERTVRVPMMSDPKAVLRYGLDSDLSCKIAQLPLTGSMSIIFFLPLKVTQNLTLIEESLTSEFIHDIDRELKTVQAVLTVPKLKLSYEGEVTKSLQEMKLQSLFDSPDFSKITGKPIKLTQVEHRAGFEWNEDGAGTTPSPGLQPAHLTFPLDYHLNQPFIFVLRDTDTGALLFIGKILDPRGP", "values": [
      {"measurement": "thickness of the grafted skin", "setting": "[3]; FIG. 9, p<0.05", "result": "significantly reduced"},
      {"measurement": "number of capillary endothelial cells (CD31-positive)", "setting": "[3]; FIG. 12, p<0.05", "result": "significantly reduced"},
      {"measurement": "frequency of Ki-67 expressing positive cells in the basal cell layer", "setting": "[3]; FIG. 14, p<0.05", "result": "significantly reduced"},
      {"measurement": "thickness of the grafted skin", "setting": "[4]; FIG. 11, p<0.05", "result": "significantly reduced"},
      {"measurement": "number of capillary endothelial cells (CD31-positive)", "setting": "[4]; FIG. 13, p<0.05", "result": "significantly reduced"},
      {"measurement": "frequency of Ki-67 expressing positive cells in the basal cell layer", "setting": "[4]; FIG. 15, p<0.05", "result": "significantly reduced"}
    ]},
    {"molecule": "polypeptide F3: polypeptide comprising the amino acid sequence of positions 301 to 418 of PEDF (SEQ ID NO: 4) (protein, listed as Homo sapiens) IDRELKTVQAVLTVPKLKLSYEGEVTKSLQEMKLQSLFDSPDFSKITGKPIKLTQVEHRAGFEWNEDGAGTTPSPGLQPAHLTFPLDYHLNQPFIFVLRDTDTGALLFIGKILDPRGP", "values": [
      {"measurement": "inhibitory effect on tumor cell proliferation (amount of [3H] thymidine incorporation by MG63)", "setting": "[5]", "result": "a strong inhibitory effect on tumor cell proliferation was confirmed"}
    ]}
  ]
}
